Assay results from patent US8901076 (Molecular Partners, dated 2014).

Target: VEGF-A165 (UniProt P15692 27-191)
Assay: cell-based or functional assay

Sequence of VEGF-A165 (P15692 other isoform, or with tags, fused parts or gaps): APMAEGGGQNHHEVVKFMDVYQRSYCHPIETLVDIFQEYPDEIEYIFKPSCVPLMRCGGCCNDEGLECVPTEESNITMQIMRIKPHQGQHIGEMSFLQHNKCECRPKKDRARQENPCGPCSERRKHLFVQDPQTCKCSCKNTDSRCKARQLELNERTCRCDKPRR

IC50 (read off the curve); sprout length of VEGF-A165 stimulated HUVEC spheroids: ~0.03 nM
B1: DARPin #30 (designed binder)
chain: GSDLGKKLLEAARAGQDDEVRILMANGADVNTADSTGWTPLHLAVPWGHLEIVEVLLKYGADVNAKDFQGWTPLHLAAAIGHQEIVEVLLKNGADVNAQDKFGKTAFDISIDNGNEDLAEILQKAA
